Measured values published in ChEMBL document CHEMBL1150988, “-lactam-recognizing enzymes exhibit different structural specificity in acyclic amide and ester substrates: a starting point in -lactamase evolution?” (Bioorg Med Chem Lett, 1994).

Key:
Conditions in all cases: enterococcus cloacae
[1] = substrate: C[C@@H](OC(=O)CNC(=O)Cc1ccccc1)C(=O)O; assay: (§1) Km against P99 beta-lactamase
[2] = substrate: CC(=O)NCCCC[C@H](NC(C)=O)C(=O)NCC(=O)O[C@H](C)C(=O)O; assay: as §1
[3] = substrate: C[C@H](NC(=O)Cc1ccccc1)C(=O)O[C@H](C)C(=O)O; assay: as §1
[4] = substrate: CC(=O)NCCCC[C@H](NC(C)=O)C(=O)N[C@@H](C)C(=O)O[C@H](C)C(=O)O; assay: as §1
[5] = substrate: C[C@@H](SC(=O)CNC(=O)Cc1ccccc1)C(=O)O; assay: as §1
[6] = substrate: CC(=O)NCCCC[C@H](NC(C)=O)C(=O)NCC(=O)S[C@H](C)C(=O)O; assay: as §1

B1: Beta-lactamase (Enterobacter cloacae), P05364 (protein)
chain: MMRKSLCCALLLGISCSALATPVSEKQLAEVVANTITPLMKAQSVPGMAVAVIYQGKPHYYTFGKADIAANKPVTPQTLFELGSISKTFTGVLGGDAIARGEISLDDAVTRYWPQLTGKQWQGIRMLDLATYTAGGLPLQVPDEVTDNASLLRFYQNWQPQWKPGTTRLYANASIGLFGALAVKPSGMPYEQAMTTRVLKPLKLDHTWINVPKAEEAHYAWGYRDGKAVRVSPGMLDAQAYGVKTNVQDMANWVMANMAPENVADASLKQGIALAQSRYWRIGSMYQGLGWEMLNWPVEANTVVEGSDSKVALAPLPVAEVNPPAPPVKASWVHKTGSTGGFGSYVAFIPEKQIGIVMLANTSYPNPARVEAAYHILEALQ
Km [1]: 8.1 mM | Km [2]: 36.1 mM | Km [3]: 23.4 mM | Km [4]: 26.9 mM | Km [5]: 3.3 mM | Km [6]: 6.7 mM
